Columns and labels:
[1] = target: Centrobin peptide motif (Homo sapiens) (UniProt Q8N137); settings: cited from earlier work
Cep192 IDR+ASH8 = target: T1, Cep192 IDR+ASH8 (Homo sapiens, UniProt Q8TEP8); test: GFP-Trap bead supernatant depletion pull-down with western blot
T1 chain: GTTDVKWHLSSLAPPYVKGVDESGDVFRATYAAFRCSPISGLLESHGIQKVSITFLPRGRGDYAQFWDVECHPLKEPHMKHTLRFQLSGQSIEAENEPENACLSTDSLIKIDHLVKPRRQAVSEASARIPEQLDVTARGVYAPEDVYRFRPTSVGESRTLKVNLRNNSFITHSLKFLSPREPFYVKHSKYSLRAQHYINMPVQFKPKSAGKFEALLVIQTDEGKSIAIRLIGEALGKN

For TRIM37 MATH (from UniProt O94972), the Kd [1] is given as 14 µM.

B1: TRIM37 (protein)
chain: MDEQSVESIAEVFRCFICMEKLRDARLCPHCSKLCCFSCIRRWLTEQRAQCPHCRAPLQLRELVNCRWAEEVTQQLDTLQLCSLTKHEENEKDKCENHHEKLSVFCWTCKKCICHQCALWGGMHGGHTFKPLAEIYEQHVTKVNEEVAKLRRRLMELISLVQEVERNVEAVRNAKDERVREIRNAVEMMIARLDTQLKNKLITLMGQKTSLTQETELLESLLQEVEHQLRSCSKSELISKSSEILMMFQQVHRKPMASFVTTPVPPDFTSELVPSYDSATFVLENFSTLRQRADPVYSPPLQVSGLCWRLKVYPDGNGVVRGYYLSVFLELSAGLPETSKYEYRVEMVHQSCNDPTKNIIREFASDFEVGECWGYNRFFRLDLLANEGYLNPQNDTVILRFQVRSPTFFQKSRDQHWYITQLEAAQTSYIQQINNLKERLTIELSRTQKSRDLSPPDNHLSPQNDDALETRAKKSACSDMLLEGGPTTASVREAKEDEEDEEKIQNEDYHHELSDGDLDLDLVYEDEVNQLDGSSSSASSTATSNTEENDIDEETMSGENDVEYNNMELEEGELMEDAAAAGPAGSSHGYVGSSSRISRRTHLCSAATSSLLDIDPLILIHLLDLKDRSSIENLWGLQPRPPASLLQPTASYSRKDKDQRKQQAMWRVPSDLKMLKRLKTQMAEVRCMKTDVKNTLSEIKSSSAASGDMQTSLFSADQAALAACGTENSGRLQDLGMELLAKSSVANCYIRNSTNKKSNSPKPARSSVAGSLSLRRAVDPGENSRSKGDCQTLSEGSPGSSQSGSRHSSPRALIHGSIGDILPKTEDRQCKALDSDAVVVAVFSGLPAVEKRRKMVTLGANAKGGHLEGLQMTDLENNSETGELQPVLPEGASAAPEEGMSSDSDIECDTENEEQEEHTSVGGFHDSFMVMTQPPDEDTHSSFPDGEQIGPEDLSFNTDENSGR
In the case of B1, the Kd (Cep192 IDR+ASH8) is reported as 0.075 µM.
